Some targets named below: Tenascin C; Fibrinogen; Fibronectin; Vitronectin; Osteopontin.
What all share (assay): ELISA; cytokine coated, ECM protein 0.02 to 320 nM, KD by non-linear fit
In general terms: ELISA stands for enzyme-linked immunosorbent assay.

Four substances from patent US20140010832A1 can be followed below.

Sequence of human VEGF-A121-PlGF2123-144 (P15692 other isoform, or with tags, fused parts or gaps): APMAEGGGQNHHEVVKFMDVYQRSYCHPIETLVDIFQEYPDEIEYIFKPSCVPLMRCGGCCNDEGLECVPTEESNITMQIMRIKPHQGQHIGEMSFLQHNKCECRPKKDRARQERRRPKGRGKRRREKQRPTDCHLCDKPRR
Sequence of Vitronectin (P04004 20-478): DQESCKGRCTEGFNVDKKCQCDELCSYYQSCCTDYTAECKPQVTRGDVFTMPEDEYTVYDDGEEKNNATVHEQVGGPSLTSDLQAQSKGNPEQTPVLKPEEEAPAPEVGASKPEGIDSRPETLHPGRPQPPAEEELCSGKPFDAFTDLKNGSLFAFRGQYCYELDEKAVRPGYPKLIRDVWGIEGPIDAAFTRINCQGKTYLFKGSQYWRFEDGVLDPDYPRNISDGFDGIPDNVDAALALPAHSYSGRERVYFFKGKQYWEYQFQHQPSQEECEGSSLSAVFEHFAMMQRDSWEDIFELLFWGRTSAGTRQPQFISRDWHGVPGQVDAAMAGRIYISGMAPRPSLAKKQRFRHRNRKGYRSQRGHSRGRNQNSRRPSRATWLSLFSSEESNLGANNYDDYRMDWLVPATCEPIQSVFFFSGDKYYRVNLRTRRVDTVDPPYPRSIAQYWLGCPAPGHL
Sequence of human PDGF-BB (P01127 82-190 limits assumed): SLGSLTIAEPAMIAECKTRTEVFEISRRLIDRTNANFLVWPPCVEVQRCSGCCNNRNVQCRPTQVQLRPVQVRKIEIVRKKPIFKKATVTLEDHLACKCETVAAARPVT
Sequence of Fibronectin (P02751 32-2477): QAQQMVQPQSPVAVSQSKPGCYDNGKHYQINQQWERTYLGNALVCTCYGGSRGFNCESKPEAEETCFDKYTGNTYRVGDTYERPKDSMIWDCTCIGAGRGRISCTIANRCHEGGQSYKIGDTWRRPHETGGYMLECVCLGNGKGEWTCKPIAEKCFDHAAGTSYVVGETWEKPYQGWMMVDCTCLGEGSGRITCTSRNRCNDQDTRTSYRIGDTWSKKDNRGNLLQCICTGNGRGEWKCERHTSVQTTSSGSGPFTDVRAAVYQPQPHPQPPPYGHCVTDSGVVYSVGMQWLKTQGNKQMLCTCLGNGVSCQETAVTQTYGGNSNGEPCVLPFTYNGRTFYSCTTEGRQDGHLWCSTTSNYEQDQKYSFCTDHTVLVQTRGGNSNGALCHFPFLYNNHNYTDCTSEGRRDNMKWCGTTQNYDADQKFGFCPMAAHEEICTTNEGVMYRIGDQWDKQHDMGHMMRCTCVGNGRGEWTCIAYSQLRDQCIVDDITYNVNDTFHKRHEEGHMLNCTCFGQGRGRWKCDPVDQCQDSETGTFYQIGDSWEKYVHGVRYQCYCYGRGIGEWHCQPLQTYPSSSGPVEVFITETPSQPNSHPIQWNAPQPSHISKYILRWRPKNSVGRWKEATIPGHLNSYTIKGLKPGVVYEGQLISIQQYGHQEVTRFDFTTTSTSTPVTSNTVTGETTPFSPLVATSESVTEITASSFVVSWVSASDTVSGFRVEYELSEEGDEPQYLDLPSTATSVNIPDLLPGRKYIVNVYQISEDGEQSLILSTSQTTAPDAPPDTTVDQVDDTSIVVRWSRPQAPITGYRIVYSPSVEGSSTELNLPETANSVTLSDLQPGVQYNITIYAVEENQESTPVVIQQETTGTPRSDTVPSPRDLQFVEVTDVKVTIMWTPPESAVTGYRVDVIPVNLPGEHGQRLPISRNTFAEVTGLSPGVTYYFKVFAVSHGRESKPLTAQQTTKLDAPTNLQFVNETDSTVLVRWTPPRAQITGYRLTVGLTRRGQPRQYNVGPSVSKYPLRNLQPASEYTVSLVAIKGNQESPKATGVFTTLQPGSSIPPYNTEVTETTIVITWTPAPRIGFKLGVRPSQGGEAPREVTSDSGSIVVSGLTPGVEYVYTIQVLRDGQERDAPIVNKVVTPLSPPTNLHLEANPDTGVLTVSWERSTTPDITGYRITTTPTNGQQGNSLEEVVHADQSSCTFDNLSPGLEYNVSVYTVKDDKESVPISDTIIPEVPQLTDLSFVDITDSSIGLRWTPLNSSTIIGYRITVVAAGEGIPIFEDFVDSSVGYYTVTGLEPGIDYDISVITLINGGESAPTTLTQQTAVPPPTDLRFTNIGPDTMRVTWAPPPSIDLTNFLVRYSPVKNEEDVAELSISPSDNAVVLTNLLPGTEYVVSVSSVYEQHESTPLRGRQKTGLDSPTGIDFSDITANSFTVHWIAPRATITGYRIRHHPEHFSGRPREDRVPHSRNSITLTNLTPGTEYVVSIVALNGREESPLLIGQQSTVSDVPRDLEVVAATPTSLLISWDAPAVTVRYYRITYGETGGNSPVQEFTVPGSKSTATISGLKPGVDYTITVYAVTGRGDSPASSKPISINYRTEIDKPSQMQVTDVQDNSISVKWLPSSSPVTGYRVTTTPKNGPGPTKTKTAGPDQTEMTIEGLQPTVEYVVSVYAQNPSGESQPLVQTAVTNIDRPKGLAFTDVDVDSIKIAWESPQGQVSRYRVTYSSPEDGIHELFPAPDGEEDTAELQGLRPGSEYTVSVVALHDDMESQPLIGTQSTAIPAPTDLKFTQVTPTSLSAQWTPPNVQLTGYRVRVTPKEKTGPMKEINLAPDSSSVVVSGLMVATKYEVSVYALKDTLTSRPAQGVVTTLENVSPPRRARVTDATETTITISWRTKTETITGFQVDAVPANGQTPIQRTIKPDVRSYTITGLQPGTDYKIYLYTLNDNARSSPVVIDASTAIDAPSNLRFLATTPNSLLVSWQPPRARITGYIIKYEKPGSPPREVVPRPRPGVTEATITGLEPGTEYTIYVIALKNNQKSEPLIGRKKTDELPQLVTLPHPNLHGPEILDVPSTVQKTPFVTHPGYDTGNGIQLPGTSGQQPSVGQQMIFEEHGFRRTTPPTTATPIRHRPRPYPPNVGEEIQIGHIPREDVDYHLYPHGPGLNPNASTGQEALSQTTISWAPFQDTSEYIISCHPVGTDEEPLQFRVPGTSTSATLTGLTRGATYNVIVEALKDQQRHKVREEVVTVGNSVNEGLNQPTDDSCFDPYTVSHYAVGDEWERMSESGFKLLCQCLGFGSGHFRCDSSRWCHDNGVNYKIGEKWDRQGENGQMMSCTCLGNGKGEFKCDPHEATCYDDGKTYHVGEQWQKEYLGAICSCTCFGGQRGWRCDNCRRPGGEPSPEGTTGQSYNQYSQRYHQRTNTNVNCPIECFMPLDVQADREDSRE
Sequence of VEGF-A165 (P15692 other isoform, or with tags, fused parts or gaps limits assumed): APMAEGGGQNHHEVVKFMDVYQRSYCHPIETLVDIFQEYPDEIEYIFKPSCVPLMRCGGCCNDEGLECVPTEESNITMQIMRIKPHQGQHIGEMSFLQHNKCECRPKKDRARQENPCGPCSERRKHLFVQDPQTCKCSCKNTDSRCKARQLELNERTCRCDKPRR
Sequence of Osteopontin (P10451 17-314): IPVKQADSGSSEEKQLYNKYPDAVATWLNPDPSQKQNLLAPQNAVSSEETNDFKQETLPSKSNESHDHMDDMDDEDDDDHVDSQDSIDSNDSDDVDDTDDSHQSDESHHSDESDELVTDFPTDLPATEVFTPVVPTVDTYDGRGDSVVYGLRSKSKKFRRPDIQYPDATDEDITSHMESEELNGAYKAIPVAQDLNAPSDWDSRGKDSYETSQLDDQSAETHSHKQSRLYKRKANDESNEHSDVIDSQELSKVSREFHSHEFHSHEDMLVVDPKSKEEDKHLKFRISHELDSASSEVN

The term Kd denotes the free concentration of one partner at which half of the binding sites on the other are occupied at equilibrium, for simple one-to-one binding. On to “human VEGF-A121-PlGF2123-144 (from UniProt P15692 207-395) (ligand)”, for which the Kd with Tenascin C is 18 nM; in the experiment with Fibrinogen it was 5.8 nM; with Fibronectin it was 11.2 nM; with Vitronectin, 2.8 nM; in the experiment with Osteopontin it was 26.4 nM.

With “human PDGF-BB (from UniProt P01127 82-190) (ligand)”, the Kd with Tenascin C was found to be 19 nM; in the experiment with Fibrinogen, 250 nM; in the experiment with Fibronectin it was 11.6 nM; with Vitronectin, 10.5 nM; in the experiment with Osteopontin, 20.3 nM.

For “VEGF-A165 (from UniProt P15692 27-191) (ligand)”, the Kd with Tenascin C came to 115 nM; in the experiment with Fibrinogen, 302 nM; with Fibronectin, 97.2 nM; in the experiment with Vitronectin it was 70.9 nM; in the experiment with Osteopontin, 71 nM.

As to PlGF2 (ligand), the Kd is 10.1 nM with Tenascin C; 4.5 nM with Fibrinogen; 7.2 nM in the experiment with Fibronectin; 2 nM in the experiment with Vitronectin; 13.1 nM with Osteopontin.
